Among the data in patent US20210040194A1 are Hu pTie2 EC50 (nM), Hek293-Tie2 cells, Cyno pTie2 EC50 (nM) and Mu pTie2 EC50 (nM) values, retold here.

Holding throughout (assay): cell-based or functional assay
Experiment [1] concerns the target Human ANG-2 (huAng2) (human) (UniProt O15123).
The next experiment deals with cyno Ang2 (cyno).
The target of another experiment is mouse Ang2 (mouse) (UniProt O35608).
Sequence of mouse Ang2 (mouse) (O35608 19-496 limits assumed): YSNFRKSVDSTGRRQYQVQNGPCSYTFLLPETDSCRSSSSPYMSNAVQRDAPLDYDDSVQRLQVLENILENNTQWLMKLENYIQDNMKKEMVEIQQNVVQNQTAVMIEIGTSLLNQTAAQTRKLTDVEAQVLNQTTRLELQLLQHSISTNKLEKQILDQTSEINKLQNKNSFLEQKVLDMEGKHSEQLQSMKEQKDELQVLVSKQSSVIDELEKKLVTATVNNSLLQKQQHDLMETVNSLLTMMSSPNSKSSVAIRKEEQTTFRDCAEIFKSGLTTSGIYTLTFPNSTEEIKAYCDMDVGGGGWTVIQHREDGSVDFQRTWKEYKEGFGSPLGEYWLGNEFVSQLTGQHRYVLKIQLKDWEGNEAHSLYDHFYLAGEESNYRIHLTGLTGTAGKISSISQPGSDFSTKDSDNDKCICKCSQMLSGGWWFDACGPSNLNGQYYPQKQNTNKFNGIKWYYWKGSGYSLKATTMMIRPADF

Sequence of Human ANG-2 (huAng2) (human) (O15123 19-496 limits assumed): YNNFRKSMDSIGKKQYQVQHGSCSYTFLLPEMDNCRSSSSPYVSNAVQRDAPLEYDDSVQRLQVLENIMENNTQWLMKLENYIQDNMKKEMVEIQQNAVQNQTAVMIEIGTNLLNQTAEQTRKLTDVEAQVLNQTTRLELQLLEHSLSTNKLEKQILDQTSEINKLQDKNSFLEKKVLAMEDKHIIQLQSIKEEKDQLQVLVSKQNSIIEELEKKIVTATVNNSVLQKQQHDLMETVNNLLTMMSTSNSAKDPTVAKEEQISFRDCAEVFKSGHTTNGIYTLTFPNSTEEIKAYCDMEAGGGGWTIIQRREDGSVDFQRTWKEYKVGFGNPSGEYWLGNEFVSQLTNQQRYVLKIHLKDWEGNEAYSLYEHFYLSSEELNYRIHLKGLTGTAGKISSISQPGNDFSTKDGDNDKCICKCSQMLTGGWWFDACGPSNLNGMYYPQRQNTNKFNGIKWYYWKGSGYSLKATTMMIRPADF

Substance MEDI3617 (antibody) gave a Hu pTie2 EC50 (nM), Hek293-Tie2 cells in experiment [1] of 2.65 nM. The substance further yielded a Cyno pTie2 EC50 (nM) with cyno Ang2 (cyno) of 33.2 nM. The substance further had a Mu pTie2 EC50 (nM) with mouse Ang2 (mouse) of 137 nM.
